Experimental data: patent US20250043012A1

Biological target: human EGFR (protein used in SPR, ELISA and BLI) (human) (UniProt P00533)
Experiment: SPR

koff: 5e-05 s⁻¹
kon: 280000 M⁻¹ s⁻¹
B1: ER-2b (antibody, part only; not given: Constant region, common trastuzumab light chain, part only)
heavy chain, part: EVQLVESGGGLVQPGGSLRLSCAASGFNIYYAAMHWVRQAPGKGLEWVAFISPYYSYTSYADSVKGRFTISADTSKNTAYLQMNSLRAEDTAVYYCARYFHSSWYESSSPRAYYPGMDYWGQGTLVTVSS
